From article PMC5562331, “The transcriptional regulator SsrB is involved in a molecular switch controlling virulence lifestyles of Salmonella”

B1: hilD -37+6 (dsDNA)
DNA 1: GATCCGCATTTACAACTCAGATTTTTTCAGTAGGATACCAGTAAGGA
DNA 2: AGCTTCCTTACTGGTATCCTACTGAAAAAATCTGAGTTGTAAATGCG
B2: hilA -35+6 (dsDNA)
DNA 1: GATCCGCATTTACACCCCAAAAAAATGCAGTAAGATAGCTACAAA
DNA 2: AGCTTTTGTAGCTATCTTACTGCATTTTTTTGGGGTGTAAATGCG

Target: 6H-SsrBc (Salmonella enterica serovar Typhimurium, UniProt Q7CQM5 138-212)
Experiment: EMSA; 0-2 uM protein
Settings: protein: recombinant; 5' overhang 4 nt at both ends

Chain of 6H-SsrBc (Q7CQM5 138-212): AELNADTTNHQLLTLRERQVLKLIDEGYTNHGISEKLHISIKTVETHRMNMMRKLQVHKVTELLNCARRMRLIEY

Binder	binding result
B1	binds
B2	no binding
